In publication PMC9891525 (2023):

Target: biotinylated recombinant SARS-CoV-2 wild type spike RBD (SARS-CoV-2, UniProt P0DTC2 319-541)
Experiment: FACS

B1: REGN10987 scFv displayed on the surface of HEK 293T cells (scFv, V domains shown)
VH: QVQLVESGGGVVQPGRSLRLSCAASGFTFSNYAMYWVRQAPGKGLEWVAVISYDGSNKYYADSVKGRFTISRDNSKNTLYLQMNSLRTEDTAVYYCASGSDYGDYLLVYWGQGTLVTVSS
VL: QSALTQPASVSGSPGQSITISCTGTSSDVGGYNYVSWYQQHPGKAPKLMIYDVSKRPSGVSNRFSGSKSGNTASLTISGLQSEDEADYYCNSLTSISTWVFGGGTKLTVL
With B1 the Kd was 8.33 nM.
